Reference: article PMC12775996
pKd: −log10 of the molar value.

What was measured:
[1] = target: adenovirus type 5 vector particles (wild-type capsid) (human adenovirus type 5); assay: SPR; MP-SPR 220A, CMD 2D sensor, viruses amine-coupled, 22°C; PF4 at 7 μg/mL (900 nM) in pure PBS without passivating agents, 600 s injection, then flush
[2] = target: human platelet factor 4 (human)
[3] = target: human platelet factor 4; assay: ELISA-qPCR; conditions: PF4-coated wells; N = 6, two independent repeats; bar labelled Ad5-ΔfX; parent: est. 1.7e5; read off a plot

Substance	VP uptake in A549 cells (internalized Ad genomes by qPCR, 3 hpi, 20 vpc) after incubation with 10 μg/mL PF4 [2]	further results
human platelet factor 4 (natural protein)		pKd [1]: 5.98
adenovirus type 69 vector particles (complex)	3 fold	
adenovirus type 13 vector particles (complex)	1.6 fold	
adenovirus type 5 vector particles (wild-type capsid) (from UniProt P06496) T425A		response (number of bound VPs) [3]: 290000
adenovirus type 11 vector particles (complex)	1.6 fold	
adenovirus type 5 vector particles (wild-type capsid), P06496 1-107	3 fold	
